Laboratory results taken from US20210347867A1 (GEORG AUGUST UNIVERSIT T G TTINGEN STIFTUNG FFENTLICHEN …, published 2021).
Read-outs that look alike come from different tables or passages of the source.

What was measured:
amyloid peptide Aβ4-42 [1] = target: T1, amyloid peptide Aβ4-42 (UniProt P05067 675-713); assay: SPR, Biacore T200; SPR (Biacore T200), apparent KD comparable to the mouse antibody
T1 construct: domain: Aβ4-42; Bought synthetic peptide; also called Anaspec Aβ4-42

amyloid peptide AβpE3-42 [2] = target: T2, amyloid peptide AβpE3-42 (UniProt P05067 674-713, N-terminal pyroglutamate (pE) at Aβ position 3); assay: ELISA, plate coated with AβpE3-42, antibody titrated, A650nm
T2 construct: domain: AβpE3-42; Bought synthetic peptide; also called AβpGlu3-42; Aβ(Glp3)3-42
Method: (§1) Each well of a […] MaxiSorp plate (Nunc) was coated with 50 μL aliquots of 200 ng/mL of 1-42, pE3-42 or 4-42 amyloid peptides in PBS and incubated overnight at 4° C. The wells were washed 3× with PBS-T (0.1% Tween20) and blocked with 150 μL of 5% milk in PBS/0.05% Tween20 per well. The wells were then incubated at RT with shaking for 1 hour and washed 3× with PBS-T (0.1% Tween20). 50 μl of primary antibody serially diluted in 1% milk PBS/0.05% Tween20 was added to the wells of the assay plate using a 3-fold dilution series starting from ˜100 μg/mL. The incubation and washing step was then repeated. Anti-human kappa chain HRP (Sigma A7164-1 mL) was diluted 4,000-fold in PBS/1% milk/0.05% Tween20 and 50 μl added to each well. The incubation and washing step was repeated and then 75 μL of K-Blue substrate (Neogen) was added per well and incubated for 5-10 minutes at RT. The reaction was stopped by adding 50 μl of RED STOP solution (Neogen) to each well and the optical density was read at 650 nm.

amyloid peptide AβpE3-42 [3] = target: T2, amyloid peptide AβpE3-42; assay: ELISA, plate coated with AβpE3-42 from PSL, antibody titrated, A650nm
Method: as §1

amyloid peptide AβpE3-42 [4] = target: T2, amyloid peptide AβpE3-42; assay: ELISA, plate coated with AβpE3-42, antibody titrated, signal as % Max
Method: as §1

amyloid peptide AβpE3-42 [5] = target: T2, amyloid peptide AβpE3-42; assay: ELISA, plate coated with AβpE3-42, antibody titrated, A650nm; remark: listed apart in the source
Method: as §1

amyloid peptide AβpE3-42 [6] = target: T2, amyloid peptide AβpE3-42; assay: ELISA, plate coated with AβpE3-42 (target by legend paragraph 24), antibody titrated, A650nm
Method: as §1

amyloid peptide Aβ1-42 = target: T3, amyloid peptide Aβ1-42 (UniProt P05067 672-713); assay: ELISA, plate coated with Aβ1-42 (target by legend paragraph 23), antibody titrated, signal as % Max; the value lies beyond the highest concentration shown
T3 construct: domain: Aβ1-42; Bought synthetic peptide; also called amyloid full length peptide Aβ1-42

amyloid peptide AβpE3-42 [7] = target: T2, amyloid peptide AβpE3-42; assay: ELISA, plate coated with AβpE3-42 (PSL), antibody titrated, blank-subtracted OD650
Method: as §1

amyloid peptide Aβ4-42 [8] = target: T1, amyloid peptide Aβ4-42; assay: ELISA, plate coated with Anaspec Aβ4-42, antibody titrated after incubation in PBS or in mouse, human or cynomolgus serum, blank-subtracted OD650
amyloid peptide AβpE3-42 [9] = target: T2, amyloid peptide AβpE3-42; assay: ELISA, plate coated with AβpE3-42, antibody titrated, blank-subtracted OD650
Method: as §1
Therefore, F67Y, Y68N, I39W and an additional variant that combined F67Y and Y68N were generated (Table 2) and binding to Aβ1-42, AβpE3-42 and 4-42 was investigated. […] Five additional variants of the heavy chain were generated with the following mutations, S53M, S53H, R100H, L103R and L103H (Table 4b). In addition, five variants of the light chain were also generated RKF (N92W), RKG (N92Y), RKH (N92H), RKI (L94R) and RIC (L94H).

amyloid peptide Aβ4-42 [10] = target: T1, amyloid peptide Aβ4-42; assay: ELISA, plate coated with Anaspec Aβ4-42, antibody titrated after incubation in PBS or in mouse, human or cynomolgus serum, blank-subtracted OD650 [continued]
amyloid peptide AβpE3-42 [11] = target: T2, amyloid peptide AβpE3-42; assay: assay not given; binding to Aβ1-42, AβpE3-42 and 4-42 was investigated
amyloid peptide Aβ4-42 [12] = target: T1, amyloid peptide Aβ4-42; assay: as above

T2 sequence (P05067 674-713 limits assumed): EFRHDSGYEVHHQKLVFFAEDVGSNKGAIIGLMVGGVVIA
T1 sequence (P05067 675-713 limits assumed): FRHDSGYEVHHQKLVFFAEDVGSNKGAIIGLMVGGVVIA
T3 sequence (P05067 672-713 limits assumed): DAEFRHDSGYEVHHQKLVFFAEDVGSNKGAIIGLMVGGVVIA

B1: chimeric NT4X-167 antibody (antibody, V domains shown)
VH: QVQLKQSGPGLVQPSQSLSITCTVSGFSLTSYGIHWVRQSPGKGLEWLGVMWSGGITDFYAAFISRLSISRDISKSQVFFKMNSLQADDTAIYYCARGSRYALDYWGQGTSVSVSS
VL: DIQMTQTTSSLSASLGDRVTISCRASQDISNYLNWYQQKPDGTVKLLIYYTSRLHSGVPSRFSGSGSGTDYSLTISNLEQEDIATYFCQQGNTLPPTFGGGTKLEIK
notes: also called chimeric positive control antibody
Amyloid peptide Aβ4-42 [1]
  binding result: binds
Amyloid peptide AβpE3-42 [2]
  EC50 (read off the curve): ~0.07 µg/mL
Amyloid peptide AβpE3-42 [3]
  EC50: 47.1 nM
Amyloid peptide AβpE3-42 [4]
  EC50: 0.118 µg/mL
Amyloid peptide AβpE3-42 [5]
  EC50 (read off the curve): ~0.07 µg/mL
Amyloid peptide AβpE3-42 [6]
  EC50: 0.227 µg/mL
Amyloid peptide Aβ1-42
  EC50: 214 µg/mL

B2: humanized NT4X-167 RHS/RKA (antibody, mouse IgG1, V domains shown)
VH: QVQLQESGPGLVKPSETLSLTCTVSGFSLSSYGIHWIRQPPGKGLEWIGVMWSGGITDFYAAFISRVTISRDTSKNQVSLKLSSVTAADTAVYYCARGSRYALDYWGQGTLVTVSS
VL: DIQMTQSPSSLSASVGDRVTITCRASQDISNYLNWYQQKPGKAPKLLIYYTSRLHSGVPSRFSGSGSGTDFTLTISSLQPEDFATYYCQQGNTLPPTFGGGTKLEIK
notes: also called SA; RHS/KA
Amyloid peptide AβpE3-42 [7]
  binding result: binds
Amyloid peptide Aβ4-42 [8]
  binding result: binds

B3: humanized NT4X-167 RHS7/RKA (antibody, mouse IgG1, V domains shown)
VH: QVQLQESGPGLVKPSETLSLTCTVSGFSLSSYGIHWIRQPPGKGLEWIGVMWSGGITNFYPSLKSRVTISRDTSKNQVSLKLSSVTAADTAVYYCARGSRYALDYWGQGTLVTVSS
VL: DIQMTQSPSSLSASVGDRVTITCRASQDISNYLNWYQQKPGKAPKLLIYYTSRLHSGVPSRFSGSGSGTDFTLTISSLQPEDFATYYCQQGNTLPPTFGGGTKLEIK
notes: also called S7A
Amyloid peptide AβpE3-42 [9]
  binding result: binds
Amyloid peptide Aβ4-42 [10]
  binding result: binds

B4: humanized NT4X-167 RHS71/RKA (antibody, V domains shown)
VH: QVQLQESGPGLVKPSETLSLTCTVSGFSLSSYGIHWIRQPPGKGLEWIGVMWSGGITNYYPSLKSRVTISRDTSKNQVSLKLSSVTAADTAVYYCARGSRYALDYWGQGTLVTVSS
VL: DIQMTQSPSSLSASVGDRVTITCRASQDISNYLNWYQQKPGKAPKLLIYYTSRLHSGVPSRFSGSGSGTDFTLTISSLQPEDFATYYCQQGNTLPPTFGGGTKLEIK
notes: also called RHS71 (F67Y) with RKA
Amyloid peptide AβpE3-42 [11]
  binding result: binds
Amyloid peptide Aβ4-42 [12]
  binding result: binds
